Patent US20250304927A1, “PRO-PEPTIDE VARIANTS FOR MODULATING ACTIVITY OF TRANSGLUTAMINASES” (CURIE CO. INC., priority 2022, published 2025)

T1: thermostable variant of Streptomyces mobaraensis transglutaminase (Streptomyces mobaraensis, UniProt P81453 79-407)
T1 sequence: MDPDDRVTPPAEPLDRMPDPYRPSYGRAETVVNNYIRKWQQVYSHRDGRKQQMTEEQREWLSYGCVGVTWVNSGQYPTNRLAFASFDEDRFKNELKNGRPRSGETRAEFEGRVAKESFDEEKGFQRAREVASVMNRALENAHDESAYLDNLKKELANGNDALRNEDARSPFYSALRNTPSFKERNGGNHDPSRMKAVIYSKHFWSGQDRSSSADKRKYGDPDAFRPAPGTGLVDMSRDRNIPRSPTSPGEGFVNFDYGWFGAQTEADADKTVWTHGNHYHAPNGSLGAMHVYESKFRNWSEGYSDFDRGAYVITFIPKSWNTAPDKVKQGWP


biological target: T1, thermostable variant of Streptomyces …; assay: cell-based or functional assay

| Binder | Improvement in pH responsiveness of inhibitory peptide relative to WT |
| --- | --- |
| MDNGAGEETKSYAETYRLTADDVANINALNESAPAAS [pro-peptide truncation variant ΔS38-P46] | > 1.2 fold |
| MINGAGEETKSYAETYRLTADDVANINALNESAPAASSAGPSFRAP [pro-peptide variant D2I] | > 1.2 fold |
| MDNGAGEETKSYAKTYRLTADDVANINALNESAPAASSAGPSFRAP [pro-peptide variant E14K] | > 5 fold |
| MDNGAGEETKSYAETYRLTADDVANINALNESAPAASRAGPSFRAP [pro-peptide variant S38R] | > 1.2 fold |
| MDNGAGEETKSYAETYRLTADDVANINALNESAPAASSAGPSFRAF [pro-peptide variant P46F] | > 1.2 fold |
| MDNGAGEETKSYAETYRLTADDVANINALNESAPAASSAGPSFRAM [pro-peptide variant P46M] | > 1.2 fold |
| MDNGAGEETKSYAETYRGTADDVANINALNESAPAASSAGPSFRAP [pro-peptide variant L18G] | > 1.2 fold |
| MDNGAGEETKSYAETYRCTADDVANINALNESAPAASSAGPSFRAP [pro-peptide variant L18C] | > 1.2 fold |
| MDNGAGEETKSYAETYRLTADDVANINALNESAPAASSAGPSFRAG [pro-peptide variant P46G] | > 5 fold |
| MDNGAGVETKSYAETYRLTADDVANINALNESAPAASSAGPSFRAP [pro-peptide variant E7V] | > 5 fold |
| MQNGAGEETKSYAETYRLTADDVANINALNESAPAASSAGPSFRAP [pro-peptide variant D2Q] | > 1.2 fold |
| MDNGAGEETKTYAETYRLTADDVANINALNESAPAASSAGPSFRAP [pro-peptide variant S11T] | > 1.2 fold |
| MDNGAGNETKSYAETYRLTADDVANINALNESAPAASSAGPSFRAP [pro-peptide variant E7N] | > 5 fold |
| MDNGAGCETKSYAETYRLTADDVANINALNESAPAASSAGPSFRAP [pro-peptide variant E7C] | > 1.2 fold |
| MDNGAGEESKSYAETYRLTADDVANINALNESAPAASSAGPSFRAP [pro-peptide variant T9S] | > 1.2 fold |
| MDNGAGTETKSYAETYRLTADDVANINALNESAPAASSAGPSFRAP [pro-peptide variant E7T] | > 1.2 fold |
| MDNGAGEETKAYAETYRLTADDVANINALNESAPAASSAGPSFRAP [pro-peptide variant S11A] | > 1.2 fold |
| MTNGAGEETKSYAETYRLTADDVANINALNESAPAASSAGPSFRAP [pro-peptide variant D2T] | > 1.2 fold |
| MSNGAGEETKSYAETYRLTADDVANINALNESAPAASSAGPSFRAP [pro-peptide variant D2S] | > 1.2 fold |
| MDNGAGEETKSYAETYRLTATDVANINALNESAPAASSAGPSFRAP [pro-peptide variant D21T] | > 1.2 fold |
| MDNGAGEETKSYAETYRVTADDVANINALNESAPAASSAGPSFRAP [pro-peptide variant L18V] | > 1.2 fold |
| MDNGAGEETKSYAETYRRTADDVANINALNESAPAASSAGPSFRAP [pro-peptide variant L18R] | > 1.2 fold |
| MDNGAGSETKSYAETYRLTADDVANINALNESAPAASSAGPSFRAP [pro-peptide variant E7S] | > 5 fold |
| MDNGAGEETKSYAYTYRLTADDVANINALNESAPAASSAGPSFRAP [pro-peptide variant E14Y] | > 5 fold |
| MPNGAGEETKSYAETYRLTADDVANINALNESAPAASSAGPSFRAP [pro-peptide variant D2P] | > 5 fold |
| MDNGAGLETKSYAETYRLTADDVANINALNESAPAASSAGPSFRAP [pro-peptide variant E7L] | > 1.2 fold |
| MDNGAGEETKSRAETYRLTADDVANINALNESAPAASSAGPSFRAP [pro-peptide variant Y12R] | > 1.2 fold |
| MDNGAGEETKSYAETYRLTADDVCNINALNESAPAASSAGPSFRAP [pro-peptide variant A24C] | > 1.2 fold |
| MDNGAGEETKSYAETYRLTADSVANINALNESAPAASSAGPSFRAP [pro-peptide variant D22S] | > 1.2 fold |
| MDNGAGEETKSYAETYRLTADDVANINALNESAPAASSAGPSFRA [pro-peptide truncation variant ΔP46] | > 1.2 fold |

biological target: T1, thermostable variant of Streptomyces …; assay: cell-based or functional assay; remark: another data set of the same source

| Binder | Improvement in binding affinity of inhibitory peptide relative to WT |
| --- | --- |
| MINGAGEETKSYAETYRLTADDVANINALNESAPAASSAGPSFRAP [pro-peptide variant D2I] | > 1.2 fold |
| MFNGAGEETKSYAETYRLTADDVANINALNESAPAASSAGPSFRAP [pro-peptide variant D2F] | > 1.2 fold |
| MDNGAGEEEKSYAETYRLTADDVANINALNESAPAASSAGPSFRAP [pro-peptide variant T9E] | > 1.2 fold |
| MDNGAGHETKSYAETYRLTADDVANINALNESAPAASSAGPSFRAP [pro-peptide variant E7H] | > 1.2 fold |
| MDNGAGRETKSYAETYRLTADDVANINALNESAPAASSAGPSFRAP [pro-peptide variant E7R] | > 1.2 fold |
| MDNGAGEETKSYAETYRLTADNVANINALNESAPAASSAGPSFRAP [pro-peptide variant D22N] | > 1.2 fold |
| MDNGAGEETKSYAETYRLTAKDVANINALNESAPAASSAGPSFRAP [pro-peptide variant D21K] | > 1.2 fold |
| MDNGAGVETKSYAETYRLTADDVANINALNESAPAASSAGPSFRAP [pro-peptide variant E7V] | > 1.2 fold |
| MQNGAGEETKSYAETYRLTADDVANINALNESAPAASSAGPSFRAP [pro-peptide variant D2Q] | > 1.2 fold |
| MDNGAGEETKSYAETYRLTADHVANINALNESAPAASSAGPSFRAP [pro-peptide variant D22H] | > 1.2 fold |
| MDNGAGEEDKSYAETYRLTADDVANINALNESAPAASSAGPSFRAP [pro-peptide variant T9D] | > 1.2 fold |
| MDNGAGEVTKSYAETYRLTADDVANINALNESAPAASSAGPSFRAP [pro-peptide variant E8V] | > 1.2 fold |
| MDNGAGEETKSYAETYRFTADDVANINALNESAPAASSAGPSFRAP [pro-peptide variant L18F] | > 1.2 fold |
| MDNGAGEECKSYAETYRLTADDVANINALNESAPAASSAGPSFRAP [pro-peptide variant T9C] | > 1.2 fold |
| MDNGAGNETKSYAETYRLTADDVANINALNESAPAASSAGPSFRAP [pro-peptide variant E7N] | > 1.2 fold |
| MDNGAGCETKSYAETYRLTADDVANINALNESAPAASSAGPSFRAP [pro-peptide variant E7C] | > 1.2 fold |
| MDNGAGEETKSYAETYRLTADDVANVNALNESAPAASSAGPSFRAP [pro-peptide variant I26V] | > 1.2 fold |
| MDNGAGTETKSYAETYRLTADDVANINALNESAPAASSAGPSFRAP [pro-peptide variant E7T] | > 1.2 fold |
| MDNGAGDETKSYAETYRLTADDVANINALNESAPAASSAGPSFRAP [pro-peptide variant E7D] | > 1.2 fold |
| MTNGAGEETKSYAETYRLTADDVANINALNESAPAASSAGPSFRAP [pro-peptide variant D2T] | > 1.2 fold |
| MDNGAGEETKSYAETYRLTADDVMNINALNESAPAASSAGPSFRAP [pro-peptide variant A24M] | > 1.2 fold |
| MSNGAGEETKSYAETYRLTADDVANINALNESAPAASSAGPSFRAP [pro-peptide variant D2S] | > 1.2 fold |
| MDNGAGEETKSYAEQYRLTADDVANINALNESAPAASSAGPSFRAP [pro-peptide variant T15Q] | > 1.2 fold |
| MDNGAGSETKSYAETYRLTADDVANINALNESAPAASSAGPSFRAP [pro-peptide variant E7S] | > 1.2 fold |
| MPNGAGEETKSYAETYRLTADDVANINALNESAPAASSAGPSFRAP [pro-peptide variant D2P] | > 1.2 fold |
| MDNGAGLETKSYAETYRLTADDVANINALNESAPAASSAGPSFRAP [pro-peptide variant E7L] | > 1.2 fold |
| MDNGAGEEPKSYAETYRLTADDVANINALNESAPAASSAGPSFRAP [pro-peptide variant T9P] | > 1.2 fold |
| MDNGAGEITKSYAETYRLTADDVANINALNESAPAASSAGPSFRAP [pro-peptide variant E8I] | > 1.2 fold |
| MDNGAGEEIKSYAETYRLTADDVANINALNESAPAASSAGPSFRAP [pro-peptide variant T9I] | > 1.2 fold |
| MDNGAGEETKSYAETYRLTADDVANINALNESAPAASSAGPSFRA [pro-peptide truncation variant ΔP46] | > 1.2 fold |
